Test [1] concerns the target VZV glycoprotein C gC_(S147-V531) (varicella zoster virus, Dumas strain).
In test [2] the target is VZV glycoprotein C construct gC Y419-S523 (varicella zoster virus (Dumas strain)). Description: SPR. (SPR reads the build-up and loss of mass on a sensor chip optically.)
Test [3] concerns the target VZV glycoprotein C gC_(Y419-S523) (varicella zoster virus, Dumas strain). Description: SPR + other: grating-coupled interferometry (GCI).
The target of test [4] is VZV glycoprotein C gC_(S147-V531) (varicella zoster virus, Dumas strain). Description: SPR + other: grating-coupled interferometry (GCI).
Sequence of VZV glycoprotein C gC_(S147-V531) (varicella zoster virus, Dumas strain) (P09256 178-562 limits assumed): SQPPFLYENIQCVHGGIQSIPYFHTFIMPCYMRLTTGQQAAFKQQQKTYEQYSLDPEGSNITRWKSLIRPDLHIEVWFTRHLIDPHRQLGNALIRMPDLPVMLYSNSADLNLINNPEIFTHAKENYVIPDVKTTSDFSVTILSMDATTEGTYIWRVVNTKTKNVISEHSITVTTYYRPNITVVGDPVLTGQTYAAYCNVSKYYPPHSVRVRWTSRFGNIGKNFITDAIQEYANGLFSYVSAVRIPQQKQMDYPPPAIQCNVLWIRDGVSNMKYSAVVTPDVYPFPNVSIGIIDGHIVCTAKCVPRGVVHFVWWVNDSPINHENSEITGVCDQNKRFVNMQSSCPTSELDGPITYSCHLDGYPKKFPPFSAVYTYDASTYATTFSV
Test [5] addresses VZV glycoprotein C gC_(Y322-S523) (varicella zoster virus, Dumas strain). Description: SPR + other: grating-coupled interferometry (GCI).

Broadly, the Kd is the constant that tells how readily two partners part at equilibrium. Low readings indicate higher affinity, high ones lower affinity. What is called koff is the first-order rate constant of dissociation. As usually defined, the kon is a measure of how fast the partners come together.

Sequence of VZV glycoprotein C construct gC Y419-S523 (varicella zoster virus (Dumas strain)) (P09256 450-554 limits assumed): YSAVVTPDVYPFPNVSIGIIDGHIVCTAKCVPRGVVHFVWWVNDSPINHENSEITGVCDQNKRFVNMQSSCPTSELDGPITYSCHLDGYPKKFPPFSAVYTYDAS
Sequence of VZV glycoprotein C gC_(Y322-S523) (varicella zoster virus, Dumas strain) (P09256 353-554 limits assumed): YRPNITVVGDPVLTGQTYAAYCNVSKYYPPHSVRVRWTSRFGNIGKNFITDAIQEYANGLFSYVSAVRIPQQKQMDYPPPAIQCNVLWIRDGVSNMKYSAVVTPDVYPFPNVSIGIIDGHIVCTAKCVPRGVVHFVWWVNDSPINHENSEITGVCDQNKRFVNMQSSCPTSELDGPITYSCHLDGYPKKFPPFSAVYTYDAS
Sequence of VZV glycoprotein C gC_(Y419-S523) (varicella zoster virus, Dumas strain) (P09256 450-554 limits assumed): as the sequence (P09256 450-554 limits assumed) above

For the substance “interferon-gamma (IFN-γ) (from UniProt P01579 24-161) (ligand)”, the adhesion of Jurkat cells to HaCaT cells stimulated with 5 ng/mL IFN-γ and 300 nM gC construct, fold against IFN-γ alone in test [1] was 2.7 fold. In test [2], this substance returned a Kd of 18 nM, a koff of 0.0244 s⁻¹ and a kon of 1.35e+06 M⁻¹ s⁻¹. In test [3], the koff is 0.02 s⁻¹. Moreover, in test [4], the off-rate of the transient interaction (Kd1), heterogenous ligand fit is 0.04 s⁻¹. The off-rate of the transient interaction (Kd1), heterogenous ligand fit in test [5] was found to be 0.04 s⁻¹.

Values taken from publication PMC11193720.
